Data reported in US20040009897A1.

Key:
[1] = target: human recombinant soluble CD4 (human) (UniProt P01730); assay: competitive ELISA on rsCD4; competitor mAb B4-HRP; unlabelled mAb B4 at 2.0 µg/mL, positive control run with week 9 sera
[2] = target: human recombinant soluble CD4 (human) (UniProt P01730); assay: competitive ELISA on rsCD4; competitor mAb B4-HRP; unlabelled mAb B4 at 2.0 µg/mL, positive control run with week 17 sera
[3] = target: human recombinant soluble CD4 (human) (UniProt P01730); assay: competitive ELISA on rsCD4; competitor mAb B4-HRP; unlabelled mAb B4 at 2.0 µg/mL, positive control run with week 11 sera
[4] = target: human recombinant soluble CD4 (human) (UniProt P01730); assay: competitive ELISA on rsCD4; competitor mAb B4-HRP; unlabelled mAb B4 at 20 µg/mL, positive control run with week 17 sera
[5] = target: human recombinant soluble CD4 (human) (UniProt P01730); assay: competitive ELISA on rsCD4; competitor mAb B4-HRP; unlabelled mAb B4 at 20 µg/mL, positive control run with week 9 sera
[6] = target: human recombinant soluble CD4 (human) (UniProt P01730); assay: competitive ELISA on rsCD4; competitor mAb B4-HRP; unlabelled mAb B4 at 20 µg/mL, positive control run with week 11 sera

% Inhibition [1]: 23.5%
% Inhibition [2]: 11.7%
% Inhibition [3]: 11.7%
% Inhibition [4]: 48.7%
% Inhibition [5]: 63%
% Inhibition [6]: 63%
Substance: mAb B4 (anti-binding site monoclonal antibody), unlabelled, purified
